Reference: paper PMC7317968, “A GM1b/asialo‐GM1 oligosaccharide‐binding R‐type lectin from purplish bifurcate mussels Mytilisepta virgata and its effect on MAP kinases” (The Febs Journal, 2019)

Biological target: the molecule itself
Test: AUC; sedimentation velocity, sample about 1.0 mg/mL, 50 mM potassium phosphate pH 7.4, 0.1 M NaCl, 293 K, c(s) analysis in SEDFIT converted to c(M); native mass 30 kDa

B1: Mytilisepta virgata R-type lectin SeviL (natural protein, UniProt A0A646QV53 1-129, looked up)
chain: MSSVTIGKCYIQNRENGGRAFYNLGRKDLGIFTGKMYDDQIWSFQKSDTPGYYTIGRESKFLQYNGEQVIMSDIEQDTTLWSLEEVPEDKGFYRLLNKVHKAYLDYNGGDLVANKHQTESEKWILFKAY
notes: SeviL (variant SeviL-1), R-type (ricin B-type) lectin of Mytilisepta virgata, 129 amino acids, 15 kDa; Native protein isolated from tissue; also called SeviL-1; mytvir1; source: purified from Mytilisepta virgata mantles and gills (lactosyl-agarose column, eluted with 50 mM lactose)
stoichiometry N: 2
